For two proteins, Km, kcat and kcat/Km results are on record in PMC7353701, “Molecular characterization and heterologous expression of two α-glucosidases from Metschnikowia spp, both producers of honey sugars” (Microbial Cell Factories, 2020).

Where a chain is given by its changes, count along the chain named.

Substrate in series [1]: OC[C@H]1O[C@@](CO)(O[C@H]2O[C@H](CO)[C@@H](O)[C@H](O)[C@H]2O)[C@@H](O)[C@@H]1O
As to the kind of experiment: initial rates, Michaelis-Menten fit. The note with it: 0-225 mM sucrose, standard assay 50 mM sodium phosphate pH 7.0, 30 °C. It counts as biochemical, Metschnikowia gruessii.

Substrate in series [2]: OC[C@H]1O[C@@](CO)(O[C@H]2O[C@H](CO)[C@@H](O)[C@H](O)[C@H]2O)[C@@H](O)[C@@H]1O
Kind of series: initial rates, Michaelis-Menten fit. The class given is biochemical, Metschnikowia reukaufii. The note with it: 0-225 mM sucrose, standard assay 50 mM sodium phosphate pH 7.0, 30 °C.

B1: Mg-αGlu (Metschnikowia gruessii) (protein)
chain: MTDAIWWKDASVYQIWPASYKDSNGDGFGDIPGVISTLDYIKNLGVDVIWLSPMYDSPQDDMGYDVADYENVYPKYGTLEDMDTLISEVHARGMKLILDLVINHTSTAHKWFEESKSDKENPKRDWYIWKPARYDEDGNRHPPNNWQSYFSGSAWEYDENTDEYYLHLFAKSQPDLNWENDETRQAIYDSALTFWFEKGVDGFRIDTAGMYSKVQTFEDAPIVFPDLEWQPCTDFHQSGPRIHEFHKEMFEKVTSKYDAMTVGEVGHSSREDALKYVSAQEKEMNMMFLFDLVEVGSNPSDRFRYDGFKLTDFKQAVSNMSSFSEGTDAWSTCFFENHDQPRCITRFGNDSPEYLFRSGKMLATLLTSLTGTLFIYQGQEFGMTNVPLEWNIDEYKDINTVNYYQLYVEKNGEENVGELIKNINLVARDNARTPVQWDGTENGGFSTGQPWMRVNDNYQQVNAASQVNDPESLYNFYKKALEVRKEHKDVLIYGSLEIIDFDDERVFSFYKKSGDKTAYVVLNFTKDPIDFKPAVESELELVLTNEREIRDDVLSPYESRLYIVKN
The Km is the concentration of substrate that gives half-maximal velocity. What is called kcat is the number of substrate molecules converted per active site and unit of time at saturation. Usually kcat/Km stands for the turnover number divided by the Michaelis constant. As to B1, in series [1], the Km turned out to be 54.1 ± 5.8 mM, the catalytic constant (kcat) was 270 ± 10.9 s⁻¹ and the kcat/Km worked out at 4900 ± 700 M⁻¹ s⁻¹.

B2: Mr-αGlu (Metschnikowia reukaufii) (protein)
chain: B1 chain with T233A, S300K, R304I, S318A
B2: in series [2], the Km was 64.9 ± 4.6 mM, the kcat amounted to 477 ± 13.7 s⁻¹ and the kcat/Km was 7400 ± 700 M⁻¹ s⁻¹.
